Reference: patent US20090082299A1 (US Dept. of Health and Human Services, published 2009)

B1: human IL-15 Receptor alpha, whole / full length (plasmid AG79, huIL15RaOPT) (receptor)
chain: ITCPPPMSVEHADIWVKSYSLYSRERYICNSGFKRKAGTSSLTECVLNKATNVAHWTTPSLKCIRDPALVHQRPAPPSTVTTAGVTPQPESLSPSGKEPAASSPSSNNTAATTAAIVPGSQLMPSKSPSTGTTEISSHESSHGTPSQTTAKNWELTASASHQPPGVYPQGHSDTTVAISTSTVLLCGLSAVSLLACYLKSRQTPPLASVEMEAMEALPVTWGTSSRDEDLENCSHHL
B2: human soluble IL-15 Receptor alpha (extracellular part; plasmid AG98, hu sIL15RaOPT) (receptor)
chain: ITCPPPMSVEHADIWVKSYSLYSRERYICNSGFKRKAGTSSLTECVLNKATNVAHWTTPSLKCIRDPALVHQRPAPPSTVTTAGVTPQPESLSPSGKEPAASSPSSNNTAATTAAIVPGSQLMPSKSPSTGTTEISSHESSHGTPSQTTAKNWELTASASHQPPGVYPQGHSDTT

Target: human IL-15 expressed from plasmid hIL15tPA6 (human IL-15opt1-tPA6; improved IL-15 with tPA6 SIGPRO peptide) (human, UniProt P40933 49-162)
Test: cell-based or functional assay

Sequence of human IL-15 expressed from plasmid hIL15tPA6 (human IL-15opt1-tPA6; improved IL-15 with tPA6 SIGPRO peptide) (P40933 other isoform, or with tags, fused parts or gaps limits assumed): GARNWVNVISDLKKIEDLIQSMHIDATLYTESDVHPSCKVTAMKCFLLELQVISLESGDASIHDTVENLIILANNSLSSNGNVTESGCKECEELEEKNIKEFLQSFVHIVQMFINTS

| Binder | total increase in IL-15 steady-state levels on co-expression in 293 cells, ELISA (FIG. 45A) [fold] |
| --- | --- |
| B1 | 4 |
| B2 | 7 |
